Biological target: Lhcp-2 polypeptide of the prasinophyte light-harvesting complex Lhcp (Ostreococcus tauri) (Ostreococcus tauri)
Assay: cryo-EM structure

Lhcp-2 polypeptide of the prasinophyte light-harvesting complex Lhcp (Ostreococcus tauri) (natural protein)
stoichiometry N: 3

Reference: publication PMC12624006
